Assay results as given in publication PMC7784689, “Structural mechanism of phospholipids translocation by MlaFEDB complex” (Cell Research, 2020).

Substrate: Nc1ncnc2c1ncn2[C@@H]1O[C@H](COP(=O)(O)OP(=O)(O)OP(=O)(O)O)[C@@H](O)[C@H]1O
Experiment: purified protein
Format: biochemical, Escherichia coli
Details: nanodisc-embedded complex (POPG), 0-4 mM ATP, 37 °C, 30 min

B1: MlaFEDB (Escherichia coli K-12) (protein)
chain: MEQSVANLVDMRDVSFTRGNRCIFDNISLTVPRGKITAIMGPSGIGKTTLLRLIGGQIAPDHGEILFDGENIPAMSRSRLYTVRKRMSMLFQSGALFTDMNVFDNVAYPLREHTQLPAPLLHSTVMMKLEAVGLRGAAKLMPSELSGGMARRAALARAIALEPDLIMFDEPFVGQDPITMGVLVKLISELNSALGVTCVVVSHDVPEVLSIADHAWILADKKIVAHGSAQALQANPDPRVRQFLDGIADGPVPFRYPAGDYHADLLPGS
notes: mlaFEDCB operon in pET20b, C-terminal His-tag on MlaB; host E. coli C43(DE3); purified in DDM, reconstituted in MSP1D1/POPG nanodisc; MlaC only in traces (by MS); with Intermembrane phospholipid transport system permease protein MlaE
**Q.** For B1, which Km is on record?
**A.** 90 ± 20 µM
